Data from the supplement of paper PMC5998384.

Key:
HeLa Kyoto [1] = test: solubility change mitosis vs G1/S (difference of NP-40 vs SDS log2 ratios) (log2 ratio difference); higher = more soluble in mitosis
HeLa Kyoto [2] = test: solubility in G1/S (NP-40 vs SDS abundance) (log2 ratio); higher = more soluble; conditions: cell cycle stage: G1/S
HeLa Kyoto [3] = test: thermal stability score vs G1/S (z-score of summed log2 fold changes over temperatures); higher = more thermally stable than in G1/S
[4] = cell cycle stage: early G1 (4.5 h after nocodazole release)
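Wherever solubility change mitosis vs G1/S (difference of NP-40 vs SDS log2 ratios) is given: synchronized HeLa Kyoto cells (double thymidine block for G1/S, nocodazole release for mitosis), protein amounts in NP-40 versus SDS lysates quantified by mass spectrometry, three biological replicates.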
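Wherever solubility in G1/S (NP-40 vs SDS abundance) is given: HeLa Kyoto cells arrested at G1/S by double thymidine block, proteins quantified by TMT10plex mass spectrometry in mild NP-40 versus SDS extracts, three biological replicates.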
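Wherever thermal stability score vs G1/S (z-score of summed log2 fold changes over temperatures) is given: synchronized HeLa Kyoto cells, proteins quantified by TMT10plex mass spectrometry, three biological replicates, mitosis taken 0.5 h after nocodazole release, G1/S directly after double thymidine block.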

AGRN, sequence (chain, as listed by the source): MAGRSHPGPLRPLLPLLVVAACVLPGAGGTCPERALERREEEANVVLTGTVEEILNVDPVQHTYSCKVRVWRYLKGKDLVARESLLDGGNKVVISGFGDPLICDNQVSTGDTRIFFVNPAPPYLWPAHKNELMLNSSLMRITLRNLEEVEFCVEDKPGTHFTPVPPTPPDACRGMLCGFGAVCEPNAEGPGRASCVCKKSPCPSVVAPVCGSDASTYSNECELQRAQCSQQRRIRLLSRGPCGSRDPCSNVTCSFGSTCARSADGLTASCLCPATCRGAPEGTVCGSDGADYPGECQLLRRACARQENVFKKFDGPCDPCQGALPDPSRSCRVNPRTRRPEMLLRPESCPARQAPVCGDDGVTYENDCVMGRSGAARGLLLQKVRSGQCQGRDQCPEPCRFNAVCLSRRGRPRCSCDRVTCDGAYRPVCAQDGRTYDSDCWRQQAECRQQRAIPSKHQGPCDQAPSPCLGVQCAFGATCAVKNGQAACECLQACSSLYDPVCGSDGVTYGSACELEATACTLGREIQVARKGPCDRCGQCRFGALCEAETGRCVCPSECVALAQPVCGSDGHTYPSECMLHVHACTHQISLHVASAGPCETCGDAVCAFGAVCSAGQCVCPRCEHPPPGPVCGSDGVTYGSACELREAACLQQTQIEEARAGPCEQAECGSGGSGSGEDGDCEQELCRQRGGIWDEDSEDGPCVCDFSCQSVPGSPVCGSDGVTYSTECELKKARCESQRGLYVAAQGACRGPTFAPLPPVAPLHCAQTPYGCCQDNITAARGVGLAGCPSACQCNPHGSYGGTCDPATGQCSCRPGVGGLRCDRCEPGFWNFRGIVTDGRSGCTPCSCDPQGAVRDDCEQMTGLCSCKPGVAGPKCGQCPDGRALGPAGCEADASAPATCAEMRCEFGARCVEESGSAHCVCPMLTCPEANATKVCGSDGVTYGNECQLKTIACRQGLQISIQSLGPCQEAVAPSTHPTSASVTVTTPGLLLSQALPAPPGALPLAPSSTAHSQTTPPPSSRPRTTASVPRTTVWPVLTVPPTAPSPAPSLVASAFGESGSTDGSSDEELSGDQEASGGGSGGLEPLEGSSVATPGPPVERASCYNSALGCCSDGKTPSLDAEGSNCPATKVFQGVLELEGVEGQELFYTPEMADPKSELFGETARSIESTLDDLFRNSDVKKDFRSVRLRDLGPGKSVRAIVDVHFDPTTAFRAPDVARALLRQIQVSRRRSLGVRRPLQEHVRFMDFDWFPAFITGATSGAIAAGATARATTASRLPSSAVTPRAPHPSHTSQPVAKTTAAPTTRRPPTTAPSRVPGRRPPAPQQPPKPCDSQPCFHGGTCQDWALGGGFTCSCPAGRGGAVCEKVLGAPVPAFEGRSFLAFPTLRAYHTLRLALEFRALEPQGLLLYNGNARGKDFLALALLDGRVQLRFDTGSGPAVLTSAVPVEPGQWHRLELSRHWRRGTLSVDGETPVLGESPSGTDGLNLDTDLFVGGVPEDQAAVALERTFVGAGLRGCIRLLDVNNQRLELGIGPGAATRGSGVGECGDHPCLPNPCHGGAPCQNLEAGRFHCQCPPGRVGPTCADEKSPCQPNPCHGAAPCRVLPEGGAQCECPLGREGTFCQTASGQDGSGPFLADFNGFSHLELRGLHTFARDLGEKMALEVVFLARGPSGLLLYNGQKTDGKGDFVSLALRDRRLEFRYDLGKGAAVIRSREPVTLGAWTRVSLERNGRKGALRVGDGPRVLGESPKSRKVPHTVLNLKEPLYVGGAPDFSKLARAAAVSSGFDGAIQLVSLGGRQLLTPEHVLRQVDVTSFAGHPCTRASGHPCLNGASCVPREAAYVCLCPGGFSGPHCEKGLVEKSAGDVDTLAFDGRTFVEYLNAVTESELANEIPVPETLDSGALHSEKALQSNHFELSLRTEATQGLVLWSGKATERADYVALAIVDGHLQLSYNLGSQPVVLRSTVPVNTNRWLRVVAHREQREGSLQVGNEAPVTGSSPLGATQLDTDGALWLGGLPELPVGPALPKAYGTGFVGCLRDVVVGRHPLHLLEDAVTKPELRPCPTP
NCOA2, sequence (chain, as listed by the source): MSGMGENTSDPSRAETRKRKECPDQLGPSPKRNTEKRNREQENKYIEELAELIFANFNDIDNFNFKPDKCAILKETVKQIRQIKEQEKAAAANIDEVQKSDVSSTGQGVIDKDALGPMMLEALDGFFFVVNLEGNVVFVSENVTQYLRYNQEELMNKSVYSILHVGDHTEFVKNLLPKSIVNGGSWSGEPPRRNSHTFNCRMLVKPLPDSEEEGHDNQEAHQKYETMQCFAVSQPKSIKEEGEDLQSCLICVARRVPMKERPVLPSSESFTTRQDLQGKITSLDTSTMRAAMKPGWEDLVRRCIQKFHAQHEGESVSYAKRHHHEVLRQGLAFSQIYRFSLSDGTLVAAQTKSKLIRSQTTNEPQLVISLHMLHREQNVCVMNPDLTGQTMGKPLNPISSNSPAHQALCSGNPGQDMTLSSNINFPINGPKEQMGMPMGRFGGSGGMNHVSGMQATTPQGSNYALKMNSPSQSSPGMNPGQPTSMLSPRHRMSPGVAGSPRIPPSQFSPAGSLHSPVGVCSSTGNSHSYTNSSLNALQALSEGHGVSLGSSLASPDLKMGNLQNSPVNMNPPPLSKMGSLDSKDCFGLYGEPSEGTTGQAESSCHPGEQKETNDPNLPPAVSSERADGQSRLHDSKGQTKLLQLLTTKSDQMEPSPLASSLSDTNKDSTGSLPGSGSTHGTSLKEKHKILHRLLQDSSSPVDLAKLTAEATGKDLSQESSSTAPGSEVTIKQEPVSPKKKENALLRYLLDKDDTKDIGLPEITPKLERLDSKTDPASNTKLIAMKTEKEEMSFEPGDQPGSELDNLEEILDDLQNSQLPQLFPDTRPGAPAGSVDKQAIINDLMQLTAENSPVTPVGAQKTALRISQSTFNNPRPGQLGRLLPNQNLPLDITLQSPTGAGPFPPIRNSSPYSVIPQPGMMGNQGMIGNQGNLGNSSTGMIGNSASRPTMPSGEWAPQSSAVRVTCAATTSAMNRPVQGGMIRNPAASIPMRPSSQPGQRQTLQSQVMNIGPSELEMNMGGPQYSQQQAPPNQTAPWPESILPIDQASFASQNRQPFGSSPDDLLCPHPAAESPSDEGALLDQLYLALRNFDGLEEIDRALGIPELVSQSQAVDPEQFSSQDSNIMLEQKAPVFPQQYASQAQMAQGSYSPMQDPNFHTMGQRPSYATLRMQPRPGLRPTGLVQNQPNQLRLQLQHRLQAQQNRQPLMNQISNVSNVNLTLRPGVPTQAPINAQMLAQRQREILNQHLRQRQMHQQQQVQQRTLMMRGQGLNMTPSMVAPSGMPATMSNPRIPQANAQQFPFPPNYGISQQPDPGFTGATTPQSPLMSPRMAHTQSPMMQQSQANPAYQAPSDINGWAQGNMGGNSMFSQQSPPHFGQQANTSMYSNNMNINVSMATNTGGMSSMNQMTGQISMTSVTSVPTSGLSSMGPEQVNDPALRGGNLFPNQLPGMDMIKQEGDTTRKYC

MSGEPELIELRELAPAGRAGKGRTRLERANALRIARGTACNPTRQLVPGRGHRFQPAGPATHTWCDLCGDFIWGVVRKGLQCARLSADCKFTCHYRCRALVCLDCCGPRDLGWEPAVERDTNVDEPVEWETPDLSQAEIEQKIKEYNAQINSNLFMSLNKDGSYTGFIKVQLKLVRPVSVPSSKKPPSLQDARRGPGRGTSVRRRTSFYLPKDAVKHLHVLSRTRAREVIEALLRKFLVVDDPRKFALFERAERHGQVYLRKLLDDEQPLRLRLLAGPSDKALSFVLKENDSGEVNWDAFSMPELHNFLRILQREEEEHLRQILQKYSYCRQKIQEALHACPLG [RASSF1]
solubility change mitosis (log2) (HeLa Kyoto [1]): 0.0429 | solubility in G1/S (log2) (HeLa Kyoto [2]): 0.0141

MQQESERCRVRARRPDMALYVPKARRGAVLLKTGDEEESCGSPNSVVKEKQKESSLSQKEVFKDKPEARRLNINPDRKEHNCREEKKSSTKLRMDTCLQKTNRVCSKRGTTESKEVLSQGQQQGAPNAGVITNAPLQRHFKPKKVECLEVETTDVTGHERILLSQACLEISEAQVPSKPFQNVEFCDFSRHEPDGEAFEDKDLEGRIETDTKVLEILYEFPRVFSSVMKPENMIVPIKLSSDSEIVQQSMQTSDGILNPSSGGITTTSVPGSPDGVFDQTCVDFEVESVGGIANSTGFILDQKDTDSIPATMGHISLSESTNDTVSPVMIRECEKNDSTADELHVKHEPPDTAVLAHETHRDSGFKNVGDITNKACMMDTTGMSCSDHVTVDSPYVVAVRIADETSINTRSFSKFVGMSADATPLHVARSGNDTEDFSNPSACSDIYGESISSHFTESTGKLIESLSDCASSLPIKKIAGSNYNTFLDSELSMLNGTKVLSDSAVGIDLGSTGDTTEALHELRTAEEFKTEEQDDSGSIEFGVSFPDRESSSMETSIEPKATETSHTEGITAIEESWESMFNDDGDCLDPRLLQEGILMHIKPENHCSKLSGNTKSRESIQEPRSDYYNHEVPDIDLSDCEFPHVIEIYDFPQEFHTEDLLRVFCSYQKKGFDIKWVDDTHALGVFSSPITARDALGIKHTMVKIRPLSQATRAAKAKARAYAEFLQPAKERPETSAALARRLVISALGVRSKQSKTEREAELKKLQEARERKRLEAKQREDIWEGRDQSTV [R3HCC1L]
solubility change mitosis (log2) (HeLa Kyoto [1]): 0.112 | solubility in G1/S (log2) (HeLa Kyoto [2]): -0.118

MEEIKPASASCVSKEKPSKVSDLISRFEGGSSLSNYSDLKKESAVNLNAPRTPGRHGLTTTPQQKLLSQHLPQRQGNDTDKTQGAQTCVANGVMAAQNQMECEEEKAATLSSDTSIQASEPLLDTHIVNGERDETATAPASPTTDSCDGNASDSSYRTPGIGPVLPLEERGAETETKVQERENGESPLELEQLDQHHEMKETNEQKLHKIANELLLTERAYVNRLDLLDQVFYCKLLEEANRGSFPAEMVNKIFSNISSINAFHSKFLLPELEKRMQEWETTPRIGDILQKLAPFLKMYGEYVKGFDNAMELVKNMTERIPQFKSVVEEIQKQKICGSLTLQHHMLEPVQRIPRYEMLLKDYLRKLPPDSLDWNDAKKSLEIISTAASHSNSAIRKMENLKKLLEIYEMLGEEEDIVNPSNELIKEGQILKLAARNTSAQERYLFLFNNMLLYCVPKFSLVGSKFTVRTRVGIDGMKIVETQNEEYPHTFQVSGKERTLELQASSAQDKEEWIKALQETIDAFHQRHETFRNAIAKDNDIHSEVSTAELGKRAPRWIRDNEVTMCMKCKEPFNALTRRRHHCRACGYVVCWKCSDYKAQLEYDGGKLSKVCKDCYQIISGFTDSEEKKRKGILEIESAEVSGNSVVCSFLQYMEKSKPWQKAWCVIPKQDPLVLYMYGAPQDVRAQATIPLLGYVVDEMPRSADLPHSFKLTQSKSVHSFAADSEELKQKWLKVILLAVTGETPGGPNEHPATLDDHPEPKKKSEC [FGD4]
solubility change mitosis (log2) (HeLa Kyoto [1]): -0.00729 | solubility in G1/S (log2) (HeLa Kyoto [2]): -0.163

MKRHRPVSSSDSSDESPSTSFTSGSMYRIKSKIPNEHKKPAEVFRKDLISAMKLPDSHHINPDSYYLFADTWKEEWEKGVQVPASPDTVPQPSLRIIAEKVKDVLFIRPRKYIHCSSPDTTEPGYINIMELAASVCRYDLDDMDIFWLQELNEDLAEMGCGPVDENLMEKTVEVLERHCHENMNHAIETEEGLGIEYDEDVICDVCRSPDSEEGNDMVFCDKCNVCVHQACYGILKVPEGSWLCRSCVLGIYPQCVLCPKKGGALKTTKTGTKWAHVSCALWIPEVSIACPERMEPITKISHIPPSRWALVCNLCKLKTGACIQCSIKSCITAFHVTCAFEHGLEMKTILDEGDEVKFKSYCLKHSQNRQKLGEAEYPHHRAKEQSQAKSEKTSLRAQKLRELEEEFYSLVRVEDVAAELGMPTLAVDFIYNYWKLKRKSNFNKPLFPPKEDEENGLVQPKEESIHTRMRMFMHLRQDLERVRNLCYMISRREKLKLSHNKIQEQIFGLQVQLLNQEIDAGLPLTNALENSLFYPPPRITLKLKMPKSTPEDHRNSSTETDQQPHSPDSSSSVHSIRNMQVPQESLEMRTKSYPRYPLESKNNRLLASLSHSRSEAKESSPAWRTPSSECYHGQSLGKPLVLQAALHGQSSIGNGKSQPNSKFAKSNGLEGSWSGNVTQKDSSSEMFCDQEPVFSPHLVSQGSFRKSTVEHFSRSFKETTNRWVKNTEDLQCYVKPTKNMSPKEQFWGRQVLRRSAGRAPYQENDGYCPDLELSDSEAESDGNKEKVRVRKDSSDRENPPHDSRRDCHGKSKTHPLSHSSMQR [JADE3]
solubility change mitosis (log2) (HeLa Kyoto [1]): 0.383 | solubility in G1/S (log2) (HeLa Kyoto [2]): -0.949

NCOA2
solubility change mitosis (log2) (HeLa Kyoto [1]): -0.129 | solubility in G1/S (log2) (HeLa Kyoto [2]): 0.178

MAAATLTSKLYSLLFRRTSTFALTIIVGVMFFERAFDQGADAIYDHINEGKLWKHIKHKYENK [UQCR10]
solubility change mitosis (log2) (HeLa Kyoto [1]): 0.0588 | solubility in G1/S (log2) (HeLa Kyoto [2]): -0.233

MTSPSPRIQIISTDSAVASPQRIQIVTDQQTGQKIQIVTAVDASGSPKQQFILTSPDGAGTGKVILASPETSSAKQLIFTTSDNLVPGRIQIVTDSASVERLLGKTDVQRPQVVEYCVVCGDKASGRHYGAVSCEGCKGFFKRSVRKNLTYSCRSNQDCIINKHHRNRCQFCRLKKCLEMGMKMESVQSERKPFDVQREKPSNCAASTEKIYIRKDLRSPLIATPTFVADKDGARQTGLLDPGMLVNIQQPLIREDGTVLLATDSKAETSQGALGTLANVVTSLANLSESLNNGDTSEIQPEDQSASEITRAFDTLAKALNTTDSSSSPSLADGIDTSGGGSIHVISRDQSTPIIEVEGPLLSDTHVTFKLTMPSPMPEYLNVHYICESASRLLFLSMHWARSIPAFQALGQDCNTSLVRACWNELFTLGLAQCAQVMSLSTILAAIVNHLQNSIQEDKLSGDRIKQVMEHIWKLQEFCNSMAKLDIDGYEYAYLKAIVLFSPDHPGLTSTSQIEKFQEKAQMELQDYVQKTYSEDTYRLARILVRLPALRLMSSNITEELFFTGLIGNVSIDSIIPYILKMETAEYNGQITGASL [NR2C2]
solubility change mitosis (log2) (HeLa Kyoto [1]): 0.0297 | solubility in G1/S (log2) (HeLa Kyoto [2]): -0.109

MAVTAQAARRKERVLCLFDVDGTLTPARQKIDPEVAAFLQKLRSRVQIGVVGGSDYCKIAEQLGDGDEVIEKFDYVFAENGTVQYKHGRLLSKQTIQNHLGEELLQDLINFCLSYMALLRLPKKRGTFIEFRNGMLNISPIGRSCTLEERIEFSELDKKEKIREKFVEALKTEFAGKGLRFSRGGMISFDVFPEGWDKRYCLDSLDQDSFDTIHFFGNETSPGGNDFEIFADPRTVGHSVVSPQDTVQRCREIFFPETAHEA [PMM1]
solubility change mitosis (log2) (HeLa Kyoto [1]): 0.102 | solubility in G1/S (log2) (HeLa Kyoto [2]): 0.195

MGLTISSLFSRLFGKKQMRILMVGLDAAGKTTILYKLKLGEIVTTIPTIGFNVETVEYKNICFTVWDVGGQDRIRPLWKHYFQNTQGLIFVVDSNDRERIQEVADELQKMLLVDELRDAVLLLFANKQDLPNAMAISEMTDKLGLQSLRNRTWYVQATCATQGTGLYEGLDWLSNELSKR [ARF4]
solubility change mitosis (log2) (HeLa Kyoto [1]): -0.374 | thermal stability score (HeLa Kyoto [3]; [4]): 4.99 | thermal stability score (HeLa Kyoto [3]; cell cycle stage: mitosis): 6.18

AGRN
solubility change mitosis (log2) (HeLa Kyoto [1]): -0.0384 | thermal stability score (HeLa Kyoto [3]; [4]): 3.71 | thermal stability score (HeLa Kyoto [3]; cell cycle stage: mitosis): 4.6

MYRTKVGLKDRQQLYKLIISQLLYDGYISIANGLINEIKPQSVCAPSEQLLHLIKLGMENDDTAVQYAIGRSDTVAPGTGIDLEFDADVQTMSPEASEYETCYVTSHKGPCRVATYSRDGQLIATGSADASIKILDTERMLAKSAMPIEVMMNETAQQNMENHPVIRTLYDHVDEVTCLAFHPTEQILASGSRDYTLKLFDYSKPSAKRAFKYIQEAEMLRSISFHPSGDFILVGTQHPTLRLYDINTFQCFVSCNPQDQHTDAICSVNYNSSANMYVTGSKDGCIKLWDGVSNRCITTFEKAHDGAEVCSAIFSKNSKYILSSGKDSVAKLWEISTGRTLVRYTGAGLSGRQVHRTQAVFNHTEDYVLLPDERTISLCCWDSRTAERRNLLSLGHNNIVRCIVHSPTNPGFMTCSDDFRARFWYRRSTTD [CSTF1]
solubility change mitosis (log2) (HeLa Kyoto [1]): -0.043 | thermal stability score (HeLa Kyoto [3]; [4]): -1.59 | thermal stability score (HeLa Kyoto [3]; cell cycle stage: mitosis): -2.67

MAFIRKKQQEQQLQLYSKERFSLLLLNLEEYYFEQHRANHILHKGSHHERKIRGSLKICSKSVIFEPDSISQPIIKIPLRDCIKIGKHGENGANRHFTKAKSGGISLIFSQVYFIKEHNVVAPYKIERGKMEYVFELDVPGKVEDVVETLLQLHRASCLDKLGDQTAMITAILQSRLARTSFDKNRFQNISEKLHMECKAEMVTPLVTNPGHVCITDTNLYFQPLNGYPKPVVQITLQDVRRIYKRRHGLMPLGLEVFCTEDDLCSDIYLKFYEPQDRDDLYFYIATYLEHHVAEHTAESYMLQWQRGHLSNYQYLLHLNNLADRSCNDLSQYPVFPWIIHDYSSSELDLSNPGTFRDLSKPVGALNKERLERLLTRYQEMPEPKFMYGSHYSSPGYVLFYLVRIAPEYMLCLQNGRFDNADRMFNSIAETWKNCLDGATDFKELIPEFYGDDVSFLVNSLKLDLGKRQGGQMVDDVELPPWASSPEDFLQKSKDALESNYVSEHLHEWIDLIFGYKQKGSDAVGAHNVFHPLTYEGGVDLNSIQDPDEKVAMLTQILEFGQTPKQLFVTPHPRRITPKFKSLSQTSSYNASMADSPGEESFEDLTEESKTLAWNNITKLQLHEHYKIHKEAVTGITVSRNGSSVFTTSQDSTLKMFSKESKMLQRSISFSNMALSSCLLLPGDATVITSSWDNNVYFYSIAFGRRQDTLMGHDDAVSKICWHDNRLYSASWDSTVKVWSGVPAEMPGTKRHHFDLLAELEHDVSVDTISLNAASTLLVSGTKEGTVNIWDLTTATLMHQIPCHSGIVCDTAFSPDSRHVLSTGTDGCLNVIDVQTGMLISSMTSDEPQRCFVWDGNSVLSGSQSGELLVWDLLGAKISERIQGHTGAVTCIWMNEQCSSIITGGEDRQIIFWKLQY [NSMAF]
solubility change mitosis (log2) (HeLa Kyoto [1]): -0.221 | thermal stability score (HeLa Kyoto [3]; [4]): -0.603 | thermal stability score (HeLa Kyoto [3]; cell cycle stage: mitosis): 0.514

MASDSGNQGTLCTLEFAVQMTCQSCVDAVRKSLQGVAGVQDVEVHLEDQMVLVHTTLPSQEVQALLEGTGRQAVLKGMGSGQLQNLGAAVAILGGPGTVQGVVRFLQLTPERCLIEGTIDGLEPGLHGLHVHQYGDLTNNCNSCGNHFNPDGASHGGPQDSDRHRGDLGNVRADADGRAIFRMEDEQLKVWDVIGRSLIIDEGEDDLGRGGHPLSKITGNSGERLACGIIARSAGLFQNPKQICSCDGLTIWEERGRPIAGKGRKESAQPPAHL [CCS]
solubility change mitosis (log2) (HeLa Kyoto [1]): 0.0319 | thermal stability score (HeLa Kyoto [3]; [4]): 0.914 | thermal stability score (HeLa Kyoto [3]; cell cycle stage: mitosis): 0.694

CNOT11
solubility change mitosis (log2) (HeLa Kyoto [1]): -0.0916

TACO1
solubility change mitosis (log2) (HeLa Kyoto [1]): 0.0266

NUDT1
solubility change mitosis (log2) (HeLa Kyoto [1]): -0.22
